Source: patent US20250339531A1, “DUX4 POLYPEPTIDES AND NUCLEIC ACIDS FOR TREATING INFLAMMATORY AND AUTOIMMUNE CONDITIONS” (Fred Hutchinson Cancer Center, priority 2021, published 2025)

What was measured:
Assay in all cases: anti-FLAG co-IP LC-MS, exp 4, +Dox +IFNG
[1] = target: 14-3-3 protein sigma (Homo sapiens) (UniProt P31947)
[2] = target: 40S ribosomal protein S4, X isoform (Homo sapiens) (UniProt P62701)
[3] = target: 40S ribosomal protein S6 (Homo sapiens) (UniProt P62753)
[4] = target: 60S ribosomal protein L11 (Homo sapiens) (UniProt P62913)
[5] = target: 60S ribosomal protein L13 (Homo sapiens) (UniProt P26373)
[6] = target: AP-2 complex subunit alpha-1 (Homo sapiens) (UniProt O95782)
[7] = target: Alpha-actinin-1 (Homo sapiens) (UniProt P12814)
[8] = target: Calpain-2 catalytic subunit (Homo sapiens) (UniProt P17655)
[9] = target: Capping protein (Actin filament) muscle Z-line, beta, isoform CRA_d (Homo sapiens) (UniProt B1AK88)
[10] = target: Coronin-1C (Homo sapiens) (UniProt Q9ULV4)
Desmin (Homo sapiens) = Desmin (Homo sapiens) (UniProt P17661)
[11] = target: Dolichyl-diphosphooligosaccharide--protein glycosyltransferase subunit 1 (Homo sapiens) (UniProt P04843)
[12] = target: Endonuclease domain-containing 1 protein (Homo sapiens) (UniProt O94919)
Filamin-A (Homo sapiens) = Filamin-A (Homo sapiens) (UniProt P21333)
[13] = target: Galectin-7 (Homo sapiens) (UniProt P47929)
[14] = target: Heat shock protein HSP 90-beta (Homo sapiens) (UniProt P08238)
[15] = target: Heterogeneous nuclear ribonucleoprotein H (Homo sapiens) (UniProt G8JLB6)
[16] = target: Histone acetyltransferase type B catalytic subunit (Homo sapiens) (UniProt O14929)
[17] = target: Histone-binding protein RBBP7 (Homo sapiens) (UniProt Q16576)
[18] = target: Insulin-like growth factor 2 mRNA-binding protein 2 (Homo sapiens) (UniProt F8W930)
Nestin (Homo sapiens) = Nestin (Homo sapiens) (UniProt P48681)
[19] = target: Nucleosome assembly protein 1-like 1 (Homo sapiens) (UniProt P55209)
Plectin (Homo sapiens) = Plectin (Homo sapiens) (UniProt Q15149)
[20] = target: Procollagen-lysine,2-oxoglutarate 5-dioxygenase 2 (Homo sapiens) (UniProt O00469)
[21] = target: Protease serine 2 preproprotein (Homo sapiens) (UniProt A6XMV9)
[22] = target: Protein S100-A6 (Homo sapiens) (UniProt P06703)
[23] = target: Serine/threonine-protein phosphatase 2A 65 kDa regulatory subunit A alpha isoform (Homo sapiens) (UniProt P30153)
[24] = target: Stress-70 protein, mitochondrial (Homo sapiens) (UniProt P38646)
[25] = target: T-complex protein 1 subunit gamma (Homo sapiens) (UniProt P49368)
[26] = target: T-complex protein 1 subunit theta (Homo sapiens) (UniProt P50990)
[27] = target: Transcription intermediary factor 1-beta (Homo sapiens) (UniProt Q13263)
[28] = target: Transportin-1 (Homo sapiens) (UniProt Q92973)
[29] = target: Tubulin beta-2A chain (Homo sapiens) (UniProt Q13885)
[30] = target: Tubulin beta-4B chain (Homo sapiens) (UniProt P68371)
[31] = target: Ubiquitin carboxyl-terminal hydrolase 11 (Homo sapiens) (UniProt P51784)
[32] = target: WD repeat-containing protein 1 (Homo sapiens) (UniProt O75083)

T-complex protein 1 subunit gamma (Homo sapiens), sequence (P49368 whole entry, one chain of several): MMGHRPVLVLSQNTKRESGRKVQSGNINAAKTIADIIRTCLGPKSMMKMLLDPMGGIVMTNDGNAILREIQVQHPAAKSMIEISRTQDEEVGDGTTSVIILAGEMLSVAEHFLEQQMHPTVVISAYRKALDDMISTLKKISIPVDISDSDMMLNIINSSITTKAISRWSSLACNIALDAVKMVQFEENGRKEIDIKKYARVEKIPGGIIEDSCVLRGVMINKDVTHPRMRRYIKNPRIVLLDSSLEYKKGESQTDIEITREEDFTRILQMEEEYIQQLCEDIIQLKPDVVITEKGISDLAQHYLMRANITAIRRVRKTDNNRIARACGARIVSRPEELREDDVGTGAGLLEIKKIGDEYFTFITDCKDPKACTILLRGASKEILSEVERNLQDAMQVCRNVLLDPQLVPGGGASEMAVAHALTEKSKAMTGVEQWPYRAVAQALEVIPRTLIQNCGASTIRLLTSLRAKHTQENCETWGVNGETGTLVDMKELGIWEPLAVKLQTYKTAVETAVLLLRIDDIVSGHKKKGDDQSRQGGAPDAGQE
Protease serine 2 preproprotein (Homo sapiens), sequence (A6XMV9 entry or part of it limits assumed, form in doubt): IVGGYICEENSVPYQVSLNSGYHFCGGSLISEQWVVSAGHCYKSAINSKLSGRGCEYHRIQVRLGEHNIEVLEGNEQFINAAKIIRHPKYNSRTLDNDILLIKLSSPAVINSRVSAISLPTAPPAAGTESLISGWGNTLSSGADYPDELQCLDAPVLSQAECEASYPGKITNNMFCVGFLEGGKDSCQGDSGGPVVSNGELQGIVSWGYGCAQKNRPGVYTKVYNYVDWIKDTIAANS
Nestin (Homo sapiens), sequence (P48681 whole entry): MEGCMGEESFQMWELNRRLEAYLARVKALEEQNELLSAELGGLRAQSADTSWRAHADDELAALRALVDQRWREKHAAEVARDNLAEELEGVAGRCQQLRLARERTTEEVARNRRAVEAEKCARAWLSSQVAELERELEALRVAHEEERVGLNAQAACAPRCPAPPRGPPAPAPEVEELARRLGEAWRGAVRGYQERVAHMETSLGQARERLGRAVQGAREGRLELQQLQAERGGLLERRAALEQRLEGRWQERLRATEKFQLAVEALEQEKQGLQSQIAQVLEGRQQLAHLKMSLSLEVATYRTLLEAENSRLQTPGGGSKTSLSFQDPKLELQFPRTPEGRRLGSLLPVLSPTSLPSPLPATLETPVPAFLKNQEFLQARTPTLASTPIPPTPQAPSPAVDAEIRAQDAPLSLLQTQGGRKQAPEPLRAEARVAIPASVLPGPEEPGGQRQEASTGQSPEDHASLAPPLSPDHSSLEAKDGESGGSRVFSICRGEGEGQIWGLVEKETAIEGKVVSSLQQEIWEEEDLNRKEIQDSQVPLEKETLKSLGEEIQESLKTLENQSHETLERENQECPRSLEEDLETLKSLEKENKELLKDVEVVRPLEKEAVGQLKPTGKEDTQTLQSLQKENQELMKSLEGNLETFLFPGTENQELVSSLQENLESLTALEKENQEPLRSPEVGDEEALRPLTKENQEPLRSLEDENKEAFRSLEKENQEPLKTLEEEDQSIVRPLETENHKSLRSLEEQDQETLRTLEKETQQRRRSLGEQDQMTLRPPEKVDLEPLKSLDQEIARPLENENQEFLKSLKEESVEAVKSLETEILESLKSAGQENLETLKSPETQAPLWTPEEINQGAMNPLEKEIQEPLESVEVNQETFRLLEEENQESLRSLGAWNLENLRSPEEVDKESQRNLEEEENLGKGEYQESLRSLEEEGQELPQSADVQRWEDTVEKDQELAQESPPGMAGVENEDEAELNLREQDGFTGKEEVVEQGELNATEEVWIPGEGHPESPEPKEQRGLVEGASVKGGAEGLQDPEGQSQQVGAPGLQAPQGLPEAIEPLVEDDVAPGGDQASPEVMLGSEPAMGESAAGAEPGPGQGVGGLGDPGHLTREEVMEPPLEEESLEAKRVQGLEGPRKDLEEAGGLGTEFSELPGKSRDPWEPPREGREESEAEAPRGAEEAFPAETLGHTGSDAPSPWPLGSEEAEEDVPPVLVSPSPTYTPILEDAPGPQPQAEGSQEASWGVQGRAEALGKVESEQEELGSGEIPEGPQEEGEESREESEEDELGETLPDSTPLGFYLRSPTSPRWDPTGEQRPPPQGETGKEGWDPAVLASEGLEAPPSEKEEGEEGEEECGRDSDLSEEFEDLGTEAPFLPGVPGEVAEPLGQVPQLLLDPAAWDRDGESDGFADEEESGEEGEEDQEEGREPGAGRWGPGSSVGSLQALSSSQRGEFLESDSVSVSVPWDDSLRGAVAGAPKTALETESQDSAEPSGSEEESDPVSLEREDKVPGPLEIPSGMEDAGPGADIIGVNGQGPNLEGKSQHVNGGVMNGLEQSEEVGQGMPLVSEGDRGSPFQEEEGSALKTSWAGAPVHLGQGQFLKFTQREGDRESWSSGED
Transportin-1 (Homo sapiens), sequence (Q92973 whole entry): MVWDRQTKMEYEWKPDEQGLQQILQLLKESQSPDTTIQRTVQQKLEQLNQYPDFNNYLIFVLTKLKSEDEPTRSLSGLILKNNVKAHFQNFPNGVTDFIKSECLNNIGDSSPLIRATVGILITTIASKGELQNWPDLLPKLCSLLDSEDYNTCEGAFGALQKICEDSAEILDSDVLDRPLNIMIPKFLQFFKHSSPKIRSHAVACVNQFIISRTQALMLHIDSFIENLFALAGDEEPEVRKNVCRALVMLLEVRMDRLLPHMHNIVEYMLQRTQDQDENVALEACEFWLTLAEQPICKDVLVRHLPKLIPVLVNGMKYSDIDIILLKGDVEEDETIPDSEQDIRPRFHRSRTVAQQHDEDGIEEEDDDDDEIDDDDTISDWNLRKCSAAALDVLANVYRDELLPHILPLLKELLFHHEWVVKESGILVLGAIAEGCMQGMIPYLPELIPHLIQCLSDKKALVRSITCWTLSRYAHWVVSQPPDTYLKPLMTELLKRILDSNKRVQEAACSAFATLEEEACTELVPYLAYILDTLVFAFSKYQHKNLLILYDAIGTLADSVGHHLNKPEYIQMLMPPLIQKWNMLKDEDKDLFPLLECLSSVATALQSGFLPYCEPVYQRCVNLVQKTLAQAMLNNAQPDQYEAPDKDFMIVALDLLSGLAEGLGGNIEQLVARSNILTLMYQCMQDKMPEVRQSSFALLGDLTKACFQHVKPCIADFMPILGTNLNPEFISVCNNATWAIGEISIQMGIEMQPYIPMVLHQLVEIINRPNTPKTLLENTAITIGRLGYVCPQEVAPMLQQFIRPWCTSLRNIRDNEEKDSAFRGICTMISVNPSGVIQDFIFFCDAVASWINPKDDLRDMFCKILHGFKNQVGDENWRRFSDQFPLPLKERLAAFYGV
Dolichyl-diphosphooligosaccharide--protein glycosyltransferase subunit 1 (Homo sapiens), sequence (P04843 24-607 limits assumed): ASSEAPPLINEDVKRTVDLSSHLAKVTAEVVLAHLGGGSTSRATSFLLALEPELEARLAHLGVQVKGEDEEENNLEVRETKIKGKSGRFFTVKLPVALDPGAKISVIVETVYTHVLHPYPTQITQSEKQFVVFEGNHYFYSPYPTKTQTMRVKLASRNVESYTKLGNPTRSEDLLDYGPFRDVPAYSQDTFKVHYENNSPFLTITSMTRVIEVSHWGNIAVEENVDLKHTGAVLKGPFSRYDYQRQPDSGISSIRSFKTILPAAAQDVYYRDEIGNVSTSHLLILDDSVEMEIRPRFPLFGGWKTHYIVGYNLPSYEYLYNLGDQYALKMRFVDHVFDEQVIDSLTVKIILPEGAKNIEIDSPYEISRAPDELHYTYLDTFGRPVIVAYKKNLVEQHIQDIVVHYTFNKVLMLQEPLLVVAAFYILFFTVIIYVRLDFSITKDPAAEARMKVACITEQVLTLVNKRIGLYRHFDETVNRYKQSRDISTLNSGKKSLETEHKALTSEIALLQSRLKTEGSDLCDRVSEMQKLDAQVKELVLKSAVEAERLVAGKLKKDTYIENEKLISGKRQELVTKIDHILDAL
Stress-70 protein, mitochondrial (Homo sapiens), sequence (P38646 47-679 limits assumed): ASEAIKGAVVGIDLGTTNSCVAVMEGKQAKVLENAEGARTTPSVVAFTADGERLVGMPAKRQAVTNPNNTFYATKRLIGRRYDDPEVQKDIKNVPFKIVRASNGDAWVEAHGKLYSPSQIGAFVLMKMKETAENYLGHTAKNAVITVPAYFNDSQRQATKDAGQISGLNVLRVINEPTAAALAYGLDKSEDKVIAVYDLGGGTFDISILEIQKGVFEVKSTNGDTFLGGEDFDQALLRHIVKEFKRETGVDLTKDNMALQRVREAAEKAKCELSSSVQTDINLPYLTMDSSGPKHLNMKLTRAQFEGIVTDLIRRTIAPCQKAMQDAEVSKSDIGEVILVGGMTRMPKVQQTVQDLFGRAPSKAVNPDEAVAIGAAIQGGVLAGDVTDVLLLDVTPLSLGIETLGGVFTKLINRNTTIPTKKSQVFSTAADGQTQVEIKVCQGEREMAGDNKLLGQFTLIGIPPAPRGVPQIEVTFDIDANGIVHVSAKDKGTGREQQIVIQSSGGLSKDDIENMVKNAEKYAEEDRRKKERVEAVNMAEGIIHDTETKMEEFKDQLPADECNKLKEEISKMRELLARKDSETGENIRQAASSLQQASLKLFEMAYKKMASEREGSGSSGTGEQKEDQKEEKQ
Tubulin beta-2A chain (Homo sapiens), sequence (Q13885 whole entry): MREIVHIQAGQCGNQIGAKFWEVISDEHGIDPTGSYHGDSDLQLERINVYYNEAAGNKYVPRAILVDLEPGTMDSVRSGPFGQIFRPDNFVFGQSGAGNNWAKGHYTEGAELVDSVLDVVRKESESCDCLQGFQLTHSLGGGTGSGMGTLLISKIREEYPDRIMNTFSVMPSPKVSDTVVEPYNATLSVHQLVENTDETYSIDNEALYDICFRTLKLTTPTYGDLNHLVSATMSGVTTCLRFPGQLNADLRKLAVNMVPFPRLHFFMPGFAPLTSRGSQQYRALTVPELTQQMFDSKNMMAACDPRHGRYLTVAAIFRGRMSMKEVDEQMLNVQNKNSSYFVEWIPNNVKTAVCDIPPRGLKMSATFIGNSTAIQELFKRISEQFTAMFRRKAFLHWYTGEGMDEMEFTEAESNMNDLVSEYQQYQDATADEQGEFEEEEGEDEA

Substance: i3XFLAG-NLS-CTDaa154-424
- PSMs [1]: 6 PSMs
- PSMs [2]: 3 PSMs
- PSMs [3]: 2 PSMs
- PSMs [4]: 3 PSMs
- PSMs [5]: 2 PSMs
- PSMs [6]: 2 PSMs
- PSMs [7]: 34 PSMs
- PSMs [8]: 3 PSMs
- PSMs [9]: 11 PSMs
- PSMs [10]: 7 PSMs
- PSMs (Desmin (Homo sapiens)): 12 PSMs
- PSMs [11]: 2 PSMs
- PSMs [12]: 2 PSMs
- PSMs (Filamin-A (Homo sapiens)): 10 PSMs
- PSMs [13]: 6 PSMs
- PSMs [14]: 10 PSMs
- PSMs [15]: 3 PSMs
- PSMs [16]: 9 PSMs
- PSMs [17]: 5 PSMs
- PSMs [18]: 2 PSMs
- PSMs (Nestin (Homo sapiens)): 2 PSMs
- PSMs [19]: 3 PSMs
- PSMs (Plectin (Homo sapiens)): 7 PSMs
- PSMs [20]: 7 PSMs
- PSMs [21]: 2 PSMs
- PSMs [22]: 2 PSMs
- PSMs [23]: 2 PSMs
- PSMs [24]: 7 PSMs
- PSMs [25]: 2 PSMs
- PSMs [26]: 3 PSMs
- PSMs [27]: 2 PSMs
- PSMs [28]: 3 PSMs
- PSMs [29]: 99 PSMs
- PSMs [30]: 100 PSMs
- PSMs [31]: 2 PSMs
- PSMs [32]: 11 PSMs
